Laboratory results reported in publication PMC5587793.

T1: His-GapR (Caulobacter crescentus (NA1000?)) (UniProt B8H4R9)
T1 sequence: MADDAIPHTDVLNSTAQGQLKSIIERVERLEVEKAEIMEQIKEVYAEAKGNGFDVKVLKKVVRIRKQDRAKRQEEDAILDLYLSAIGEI

T2: His-GapR (Caulobacter crescentus, UniProt B8H4R9 1-89)
T2 sequence: T1 sequence

B1: CoriUP oligonucleotide (dsDNA)
DNA 1: GCAGGGCAAGTGGTTAAGCATATGTTAACGGATGATCCACAGG
DNA 2: CCTGTGGATCATCCGTTAACATATGCTTAACCACTTGCCCTGC
modifications: 3 bp up-replication mutation

What was measured:
[1] = target: T1, His-GapR (Caulobacter crescentus (NA1000?)); experiment: EMSA
His-GapR = target: T2, His-GapR; experiment: EMSA

Molecule	Kd [1] [nM]	binding result (His-GapR)
Cori DNA (EMSA of Figure S6)	10	–
B1	–	binds
